Measured values as given in PMC4753803.

Molecular target: death receptor 5 (DR5) (human (endogenous in MB231)), O14763
Experiment: co-IP + pull-down
Details: remark: other sources report otherwise

B1: caspase-8, Q14790 1-479 (enzyme)
chain: MDFSRNLYDIGEQLDSEDLASLKFLSLDYIPQRKQEPIKDALMLFQRLQEKRMLEESNLSFLKELLFRINRLDLLITYLNTRKEEMERELQTPGRAQISAYRVMLYQISEEVSRSELRSFKFLLQEEISKCKLDDDMNLLDIFIEMEKRVILGEGKLDILKRVCAQINKSLLKIINDYEEFSKERSSSLEGSPDEFSNGEELCGVMTISDSPREQDSESQTLDKVYQMKSKPRGYCLIINNHNFAKAREKVPKLHSIRDRNGTHLDAGALTTTFEELHFEIKPHDDCTVEQIYEILKIYQLMDHSNMDCFICCILSHGDKGIIYGTDGQEAPIYELTSQFTGLKCPSLAGKPKVFFIQACQGDNYQKGIPVETDSEEQPYLEMDLSSPQTRYIPDEADFLLGMATVNNCVSYRNPAEGTWYIQSLCQSLRERCPRGDDILTILTEVNYEVSNKDDKKNMGKQMPQPTFTLRKKLVFPSD
Binder B1 has a ratio of caspase-8/DR5 in DR5 precipitates, Axl knocked down relative to siNEG of 1.73 fold.
